Source: patent US20220024982A1 (Bicycle, published 2022)
Each block holds one binder with its values, some of them ahead of it. Numbered stars: 1 amine (or outer) side, 2 acyl side, 3 side chain; on linkers, the order of the positions; unused ones are H or OH. Bridge positions count the residues as written; N and C are the ends. Square brackets hold non-standard residues; d marks the D form. Ends that are not written are not given here. TATA = O=C(CC[*:1])N1CN(C(=O)CC[*:2])CN(C(=O)CC[*:3])C1; fluorescein = fluorescein (fluorescent label, [FI]); 2Nal = N[C@@H](Cc1ccc2ccccc2c1)C(=O)O; TBMB = c1c(C[*:1])cc(C[*:3])cc1C[*:2]; hArg = N=C(N)NCCCC[C@H](N)C(=O)O; Tle = CC(C)(C)[C@H](N)C(=O)O; Sar = CNCC(=O)O

What was measured:
[1] = biological target: T1, MT1-MMP Hemopexin domain (PEX) (UniProt P50281 319-511); experiment: FP competition vs tracer 17-88-N006
T1 construct: domain: Hemopexin domain (PEX); Target of the fluorescence polarisation assays; also called hemopexin of MT1-MMP; MMP14
Description: (§1) Subsequently, the non-fluorescent competitor bicyclic peptide (usually just the bicycle core sequence) is titrated, such that it displaces the fluorescent tracer from the target protein. The displacement of the tracer is measured and associated with a drop in fluorescence polarisation. The drop in fluorescence polarisation is proportional to the fraction of target protein bound with the non-fluorescent titrant, and thus is a measure of the affinity of titrant to target protein.
(§2) The raw data is fit to the analytical solution of the cubic equation that describes the equilibria between fluorescent tracer, titrant, and binding protein. The fit requires the value of the affinity of fluorescent tracer to the target protein, which can be determined separately by direct binding FP experiments (see previous section).

[2] = biological target: T1, MT1-MMP Hemopexin domain (PEX); experiment: FP competition vs tracer 17-69-07-N040
Text: (§3) Here, a pre-formed complex of PEX with the fluorescent PEX-binding tracer is titrated with free, non-fluoresceinated bicyclic peptide. Since all 17-69-based peptides are expected to bind at the same site, the titrant will displace the fluorescent tracer from PEX. Dissociation of the complex can be measured quantitatively, and the Kd of the competitor (titrant) to the target protein determined. The advantage of the competition method is that the affinities of non-fluoresceinated bicyclic peptides can be determined accurately and rapidly.
as §1, §2

[3] = biological target: T1, MT1-MMP Hemopexin domain (PEX); experiment: FP competition, plate 1, tracer not named
[4] = biological target: T1, MT1-MMP Hemopexin domain (PEX); experiment: FP competition vs tracer 17-69-07-N041
Text: as §3, §1, §2

[5] = biological target: T1, MT1-MMP Hemopexin domain (PEX); experiment: FP direct binding
[6] = biological target: T2, human MT1 MMP14 protein, hemopexin domain (obtained from Merck Millipore) (human, UniProt P50281 319-511, limits assumed, randomly biotinylated (EZ-Link Sulfo-NHS-LC-LC-Biotin)); experiment: SPR, biotinylated target on streptavidin chip
T2 construct: domain: hemopexin domain; Target of the SPR assay, captured on streptavidin; also called biotinylated MT1 MMP14
Description: Streptavidin was immobilized on the chip using standard amine-coupling chemistry at 25° C. with HBS-N (10 mM HEPES, 0.15 M NaCl, pH 7.4) as the running buffer. […] Buffer was changed to PBS/0.05% Tween 20 and a dilution series of the peptides was prepared in this buffer with a final DMSO concentration of 0.5%. […] Data were corrected for DMSO excluded volume effects. All data were double-referenced for blank injections and reference surface using standard processing procedures and data processing and kinetic fitting were performed using Scrubber software, version 2.0c (BioLogic Software).

Kd [1]: > 82.8 nM
B1: 17-120-21 (peptide)
peptide: ACYEECRLLFPRTCA
modifications: linker 2-6-14 via TATA

Kd [2]: > 2100 nM
B2: 17-122-04 (peptide)
peptide: ACDSPEECFYPLECA
modifications: linker 2-8-14 via TATA

Ki [3]: 80 nM
B3: BCY11149 (peptide)
peptide: Ac-LPPC[Tle][hArg]ECALLFP[hArg]TC
modifications: linker 4-8-16 via TATA

Kd [2]: 200 nM
B4: 17-126-24 (peptide)
peptide: ACDEQFYPCNHRLNTCA
modifications: linker 2-9-16 via TATA (inferred)

Kd [4]: > 316 nM
B5: 17-126-01 (peptide)
peptide: ACEEEFYPCGHPLYVCA
modifications: linker 2-9-16 via TATA

Kd [2]: > 929 nM
B6: 17-122-02 (peptide)
peptide: ACLEPDECFYPMECA
modifications: linker 2-8-14 via TATA

Kd [4]: > 430 nM
B7: 17-126-03 (peptide)
peptide: ACVEEFYPCDHPLYSCA
modifications: linker 2-9-16 via TATA

Kd [5]: 14 nM
B8: 17-88-N006 (peptide)
peptide: ACPYSWETCLFGDYRCA[Sar][Sar][Sar][Sar][Sar][Sar]K(fluorescein)
modifications: linker 2-9-16 via TBMB

Kd [5]: 50 nM
B9: 17-88-226-N002 (peptide)
peptide: ACPYDWATCLFGDYRCA[Sar][Sar][Sar][Sar][Sar][Sar]K(fluorescein)
modifications: linker 2-9-16 via TBMB

Kd [2]: > 280 nM
B10: 17-120-05 (peptide)
peptide: ACADECRLLFPKTCA
modifications: linker 2-6-14 via TATA

Kd [2]: > 139 nM
B11: 17-126-25 (peptide)
peptide: ACEEAFYPCHHPLYRCA
modifications: linker 2-9-16 via TATA (inferred)

Kd [6]: 400 nM
B12: BCY10223 (peptide)
peptide: Ac-LPPCV[hArg]ECALL[2Nal]P[hArg]TC
modifications: linker 4-8-16 via TATA

Kd [2]: > 378 nM
B13: 17-122-03 (peptide)
peptide: ACKEPQECFYPLKCA
modifications: linker 2-8-14 via TATA

Kd [5]: 1 nM
B14: 17-69-12-N004 (peptide)
peptide: fluorescein-G[Sar][Sar][Sar][Sar][Sar]ACMNQFGCEDFYDICA
modifications: linker 8-14-21 via TBMB
notes: fluorescent tracer

Kd [5]: 0.52 nM
B15: 17-69-07-N040 (peptide)
peptide: ACYNEFGCEDFYDICA[Sar][Sar][Sar][Sar][Sar][Sar]K(fluorescein)
modifications: linker 2-8-15 via TBMB
notes: fluorescent tracer

Kd [4]: > 282 nM
B16: 17-126-02 (peptide)
peptide: ACEEQFYPCTHALYTCA
modifications: linker 2-9-16 via TATA

Kd [5]: 3.4 nM
B17: 17-69-07-N041 (peptide)
peptide: fluorescein-G[Sar][Sar][Sar][Sar][Sar]ACYNEFACEDFYDICA
modifications: linker 8-14-21 via TBMB
notes: fluorescent tracer
